Measurements from paper PMC12071944, “Interaction Between Glucagon-like Peptide 1 and Its Analogs with Amyloid-β Peptide Affects Its Fibrillation and Cytotoxicity” (International Journal of Molecular Sciences, 2025).
Several values for one entry are separate records, joined by “and”; a condition that tells them apart may be missing. Equal values may be shown once. Read-outs that look alike come from different tables or passages of the source. Each block holds one substance with its values, some of them ahead of it.

How the values were obtained:
[1] = biological target: exenatide (UniProt P26349); experiment: dynamic light scattering; 29 µM Exen; 25 °C; 25 mM Tris-HCl, 140 mM NaCl, 4.9 mM KCl, […] CaCl2, 1 mM MgCl2, pH 7.4; degree of multimerization MWRh/MWm
[2] = biological target: exenatide (UniProt P26349); experiment: dynamic light scattering; 115 µM Exen; 25 °C; 25 mM Tris-HCl, 140 mM NaCl, 4.9 mM KCl, […] CaCl2, 1 mM MgCl2, pH 7.4; degree of multimerization MWRh/MWm
[3] = biological target: exenatide (UniProt P26349); experiment: dynamic light scattering; 234 µM Exen; 25 °C; 25 mM Tris-HCl, 140 mM NaCl, 4.9 mM KCl, […] CaCl2, 1 mM MgCl2, pH 7.4; degree of multimerization MWRh/MWm
[4] = biological target: exenatide (UniProt P26349); experiment: dynamic light scattering; […] µM Exen; 25 °C; 25 mM Tris-HCl, 140 mM NaCl, 4.9 mM KCl, […] CaCl2, 1 mM MgCl2, pH 7.4; degree of multimerization MWRh/MWm
[5] = biological target: amyloid-β peptide, residues 1-40 (human) (UniProt P05067); experiment: BLI; Aβ40/Aβ42 immobilised on amine-reactive sensors (EDAC/sulfo-NHS), washed with 0.5% SDS; analyte 4–15 µM Exen; 25 °C; 20 mM Tris-HCl, 140 mM NaCl, 4.9 mM KCl, […] CaCl2, 1 mM MgCl2, pH 7.4; curves not fitted, KD estimated as the level of the analyte concentrations; apparent
[6] = biological target: amyloid-β peptide, residues 1-42 (human) (UniProt P05067); experiment: as above
[7] = biological target: amyloid-β peptide, residues 1-40 (human) (UniProt P05067)
[8] = biological target: amyloid-β peptide, residues 1-42 (human) (UniProt P05067)
[9] = biological target: amyloid-β peptide, residues 1-40 (human) (UniProt P05067); experiment: SPR
[10] = biological target: amyloid-β peptide, residues 1-42 (human) (UniProt P05067); experiment: SPR
[11] = biological target: semaglutide (human); experiment: dynamic light scattering; 12 µM Sema; 25 °C; 25 mM Tris-HCl, 140 mM NaCl, 4.9 mM KCl, […] CaCl2, 1 mM MgCl2, pH 7.4; degree of multimerization MWRh/MWm
[12] = biological target: amyloid-β peptide, residues 1-40 (human) (UniProt P05067); experiment: BLI; Aβ40/Aβ42 immobilised on amine-reactive sensors (EDAC/sulfo-NHS), washed with 0.5% SDS; analyte Sema, 17 µM on Aβ40 and 38 µM on Aβ42; 25 °C; 20 mM HEPES-KOH, 140 mM NaCl, 4.9 mM KCl, […] CaCl2, 1 mM MgCl2, pH 7.4; heterogeneous ligand scheme (2)
[13] = biological target: amyloid-β peptide, residues 1-42 (human) (UniProt P05067); experiment: as above
[14] = biological target: liraglutide (human); experiment: dynamic light scattering; 6 µM Lira; 25 °C; 25 mM Tris-HCl, 140 mM NaCl, 4.9 mM KCl, […] CaCl2, 1 mM MgCl2, pH 7.4; degree of multimerization MWRh/MWm
[15] = biological target: liraglutide (human); experiment: dynamic light scattering; 13 µM Lira; 25 °C; 25 mM Tris-HCl, 140 mM NaCl, 4.9 mM KCl, […] CaCl2, 1 mM MgCl2, pH 7.4; degree of multimerization MWRh/MWm
[16] = biological target: liraglutide (human); experiment: dynamic light scattering; 52 µM Lira; 25 °C; 25 mM Tris-HCl, 140 mM NaCl, 4.9 mM KCl, […] CaCl2, 1 mM MgCl2, pH 7.4; degree of multimerization MWRh/MWm
[17] = biological target: amyloid-β peptide, residues 1-40 (human) (UniProt P05067); experiment: BLI; Aβ40/Aβ42 immobilised on amine-reactive sensors (EDAC/sulfo-NHS), washed with 0.5% SDS; analyte 5 µM Lira; 25 °C; 20 mM Tris-HCl, 140 mM NaCl, 4.9 mM KCl, […] CaCl2, 1 mM MgCl2, pH 7.4; single binding site model (1), fitted for each analyte concentration; apparent constants
[18] = biological target: amyloid-β peptide, residues 1-42 (human) (UniProt P05067); experiment: as above
[19] = biological target: amyloid-β peptide, residues 1-40 (human) (UniProt P05067); experiment: BLI; Aβ40/Aβ42 immobilised on amine-reactive sensors (EDAC/sulfo-NHS), washed with 0.5% SDS; analyte 10 µM Lira; 25 °C; 20 mM Tris-HCl, 140 mM NaCl, 4.9 mM KCl, […] CaCl2, 1 mM MgCl2, pH 7.4; single binding site model (1), fitted for each analyte concentration; apparent constants
[20] = biological target: amyloid-β peptide, residues 1-42 (human) (UniProt P05067); experiment: as above
[21] = biological target: amyloid-β peptide, residues 1-40 (human) (UniProt P05067); experiment: BLI; Aβ40/Aβ42 immobilised on amine-reactive sensors (EDAC/sulfo-NHS), washed with 0.5% SDS; analyte 20 µM Lira; 25 °C; 20 mM Tris-HCl, 140 mM NaCl, 4.9 mM KCl, […] CaCl2, 1 mM MgCl2, pH 7.4; single binding site model (1), fitted for each analyte concentration; apparent constants
[22] = biological target: amyloid-β peptide, residues 1-42 (human) (UniProt P05067); experiment: as above

Substance: exenatide (from UniProt P26349 48-87) (peptide)
stoichiometry N [1]: 2.1 | stoichiometry N [2]: 6.4 | stoichiometry N [3]: 5.88 | stoichiometry N [4]: 1.6 | Kd [5]: 4000 nM and 15000 nM | Kd [6]: 4000 nM and 15000 nM | Kd [7]: 1000 nM | Kd [8]: 1000 nM

KD1 (heterogeneous ligand model, site 1) [9]: 340 nM | KD2 (heterogeneous ligand model, site 2) [9]: 1.2 µM | ka1 (heterogeneous ligand model, site 1) [9]: 9600 M⁻¹ s⁻¹ | ka2 (heterogeneous ligand model, site 2) [9]: 39000 M⁻¹ s⁻¹ | kd1 (heterogeneous ligand model, site 1) [9]: 0.0032 s⁻¹ | kd2 (heterogeneous ligand model, site 2) [9]: 0.0432 s⁻¹ | KD1 (heterogeneous ligand model, site 1) [10]: 340 nM | KD2 (heterogeneous ligand model, site 2) [10]: 0.3 µM | ka1 (heterogeneous ligand model, site 1) [10]: 12600 M⁻¹ s⁻¹ | ka2 (heterogeneous ligand model, site 2) [10]: 134000 M⁻¹ s⁻¹ | kd1 (heterogeneous ligand model, site 1) [10]: 0.0041 s⁻¹ | kd2 (heterogeneous ligand model, site 2) [10]: 0.038 s⁻¹ | stoichiometry N [11]: 1.9 | KD1 (heterogeneous ligand scheme, site 1) [12]: 12 µM | KD2 (heterogeneous ligand scheme, site 2) [12]: 16 µM | ka1 (heterogeneous ligand scheme, site 1) [12]: 310 M⁻¹ s⁻¹ | ka2 (heterogeneous ligand scheme, site 2) [12]: 5700 M⁻¹ s⁻¹ | kd1 (heterogeneous ligand scheme, site 1) [12]: 0.0037 s⁻¹ | kd2 (heterogeneous ligand scheme, site 2) [12]: 0.091 s⁻¹ | KD1 (heterogeneous ligand scheme, site 1) [13]: 11 µM | KD2 (heterogeneous ligand scheme, site 2) [13]: 22 µM | ka1 (heterogeneous ligand scheme, site 1) [13]: 582 M⁻¹ s⁻¹ | ka2 (heterogeneous ligand scheme, site 2) [13]: 6100 M⁻¹ s⁻¹ | kd1 (heterogeneous ligand scheme, site 1) [13]: 0.0064 s⁻¹ | kd2 (heterogeneous ligand scheme, site 2) [13]: 0.134 s⁻¹
Substance: semaglutide (peptide)

KD1 (heterogeneous ligand model, site 1) [9]: 950 nM | KD2 (heterogeneous ligand model, site 2) [9]: 9.1 µM | ka1 (heterogeneous ligand model, site 1) [9]: 1440 M⁻¹ s⁻¹ | ka2 (heterogeneous ligand model, site 2) [9]: 1900 M⁻¹ s⁻¹ | kd1 (heterogeneous ligand model, site 1) [9]: 0.00119 s⁻¹ | kd2 (heterogeneous ligand model, site 2) [9]: 0.017 s⁻¹ | KD1 (heterogeneous ligand model, site 1) [10]: 520 nM | KD2 (heterogeneous ligand model, site 2) [10]: 5.6 µM | ka1 (heterogeneous ligand model, site 1) [10]: 2240 M⁻¹ s⁻¹ | ka2 (heterogeneous ligand model, site 2) [10]: 2900 M⁻¹ s⁻¹ | kd1 (heterogeneous ligand model, site 1) [10]: 0.00114 s⁻¹ | kd2 (heterogeneous ligand model, site 2) [10]: 0.0164 s⁻¹ | stoichiometry N [14]: 8.2 | stoichiometry N [15]: 6.5 | stoichiometry N [16]: 16.3 | Kd [17]: 42 nM | koff [17]: 0.000556 s⁻¹ | kon [17]: 13400 M⁻¹ s⁻¹ | Kd [18]: 45 nM | koff [18]: 0.00054 s⁻¹ | kon [18]: 12100 M⁻¹ s⁻¹ | Kd [19]: 48 nM | koff [19]: 0.000346 s⁻¹ | kon [19]: 7300 M⁻¹ s⁻¹ | Kd [20]: 60 nM | koff [20]: 0.000482 s⁻¹ | kon [20]: 8000 M⁻¹ s⁻¹ | Kd [21]: 110 nM | koff [21]: 0.0009 s⁻¹ | kon [21]: 8400 M⁻¹ s⁻¹ | Kd [22]: 110 nM | koff [22]: 0.0006 s⁻¹ | kon [22]: 5700 M⁻¹ s⁻¹
Substance: liraglutide (peptide)
